Results on one molecule are retold here after article PMC6047744.

This series has as its target Polθ-helicase domain (human, UniProt O75417 1-894). Kind of series: EMSA. A general note: Mobility shift assays separate free from complexed probe on a gel.

Polθ-helicase domain, sequence (O75417 1-894): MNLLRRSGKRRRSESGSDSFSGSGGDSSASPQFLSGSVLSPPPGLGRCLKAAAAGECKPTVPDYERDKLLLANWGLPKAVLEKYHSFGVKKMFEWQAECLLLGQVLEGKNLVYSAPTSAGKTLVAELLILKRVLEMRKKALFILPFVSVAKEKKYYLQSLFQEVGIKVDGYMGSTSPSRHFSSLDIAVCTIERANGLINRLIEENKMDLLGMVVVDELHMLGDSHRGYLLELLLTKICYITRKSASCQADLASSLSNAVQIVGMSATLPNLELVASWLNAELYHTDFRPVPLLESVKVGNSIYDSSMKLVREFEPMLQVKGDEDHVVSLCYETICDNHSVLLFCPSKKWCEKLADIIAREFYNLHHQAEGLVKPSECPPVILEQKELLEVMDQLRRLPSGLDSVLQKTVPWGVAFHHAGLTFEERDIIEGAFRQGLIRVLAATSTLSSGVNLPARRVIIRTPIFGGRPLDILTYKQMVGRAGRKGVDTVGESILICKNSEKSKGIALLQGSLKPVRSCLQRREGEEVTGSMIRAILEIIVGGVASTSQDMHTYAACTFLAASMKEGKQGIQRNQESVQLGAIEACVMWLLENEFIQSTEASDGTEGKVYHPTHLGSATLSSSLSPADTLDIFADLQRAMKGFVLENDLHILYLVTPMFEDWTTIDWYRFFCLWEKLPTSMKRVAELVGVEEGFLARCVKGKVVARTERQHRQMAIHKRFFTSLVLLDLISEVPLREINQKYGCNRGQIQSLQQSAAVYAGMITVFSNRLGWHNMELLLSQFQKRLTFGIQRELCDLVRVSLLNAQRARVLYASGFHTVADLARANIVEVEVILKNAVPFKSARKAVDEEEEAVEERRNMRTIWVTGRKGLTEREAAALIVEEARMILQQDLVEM

In the case of TTTTATATTTTGTTTTGTGTTATTTTTTTCTTTAACAT (ssDNA) [SM76], the binding result is recorded as “binds”.
